Holding throughout (experiment): purified protein
In data set [1] the test system is C[C@H]1O[C@@H](n2cnc3c(N)ncnc32)[C@H](O)[C@@H]1O. The conditions noted are these: 40 mM K-phosphate pH 7.8, 0.1 M MgCl2, 30 °C.
Data set [2] deals with CSC[C@H]1O[C@@H](n2cnc3c(N)ncnc32)[C@H](O)[C@@H]1O. The conditions noted are these: 40 mM K-phosphate pH 7.8, 0.1 M MgCl2, 30 °C.
Substrate in data set [3]: CSC[C@H]1O[C@H](OP(=O)(O)O)[C@H](O)[C@@H]1O
In kind it is biochemical, Bacillus subtilis. The conditions noted are these: 50 mM K-phosphate pH 7.8, 5 mM MgCl2, 0.3 mM CoCl2, 30 °C.

Substrate in data set [4]: CSC[C@@H](O)[C@@H](O)C(=O)COP(=O)(O)O
In kind it is biochemical, Bacillus subtilis. The conditions noted are these: 30 °C (also performed at 35 °C).

Substrate in data set [5]: C[C@@H](O)[C@@H](O)C(=O)COP(=O)(O)O
In kind it is biochemical, Bacillus subtilis. The note with it: 35 °C probably (used for weak substrates); 35.0 °C.

Substrate in data set [6]: O=P(O)(O)O[C@H]1O[C@H](CO)[C@@H](O)[C@H]1O
In kind it is biochemical, Rhodospirillum rubrum. The conditions noted are these: 50 mM K-phosphate pH 7.8, 5 mM MgCl2, 0.3 mM CoCl2, 30 °C.

Substrate in data set [7]: C[C@H]1O[C@H](OP(=O)(O)O)[C@H](O)[C@@H]1O
In kind it is biochemical, Escherichia coli. The conditions noted are these: 50 mM K-phosphate pH 7.8, 5 mM MgCl2, 0.3 mM CoCl2, 30 °C.

Substrate in data set [8]: CSC[C@H]1O[C@H](OP(=O)(O)O)[C@H](O)[C@@H]1O
In kind it is biochemical, Escherichia coli. The note with it: 50 mM K-phosphate pH 7.8, 5 mM MgCl2, 0.3 mM CoCl2, 30 °C.

In the case of EcMtnN (Escherichia coli K-12), in data set [1], the Km was found to be 4.7 µM, the kcat came to 57 s⁻¹ and the kcat/Km was 1.2e+07 M⁻¹ s⁻¹. Further, in data set [2], the Michaelis-Menten constant (Km) was found to be 0.83 µM, the kcat amounted to 150 s⁻¹ and the specificity constant (kcat/Km) worked out at 1.8e+08 M⁻¹ s⁻¹.

B1: BsMtnA (Bacillus subtilis subsp. subtilis str. 168) (protein)
chain: MTHSFAVPRSVEWKETAITILNQQKLPDETEYLELTTKEDVFDAIVTLKVRGAPAIGITAAFGLALAAKDIETDNVTEFRRRLEDIKQYLNSSRPTAINLSWALERLSHSVENAISVNEAKTNLVHEAIQIQVEDEETCRLIGQNALQLFKKGDRIMTICNAGSIATSRYGTALAPFYLAKQKDLGLHIYACETRPVLQGSRLTAWELMQGGIDVTLITDSMAAHTMKEKQISAVIVGADRIAKNGDTANKIGTYGLAILANAFDIPFFVAAPLSTFDTKVKCGADIPIEERDPEEVRQISGVRTAPSNVPVFNPAFDITPHDLISGIITEKGIMTGNYEEEIEQLFKGEKVH
As to B1, in “purified protein [3]”, the Km came to 114 µM, the kcat stood at 3.9 s⁻¹ and the kcat/Km stood at 35000 M⁻¹ s⁻¹.

B2: Bs MtnB (Bacillus subtilis subsp. subtilis str. 168) (protein)
chain: MAAKQERWRELAEVKRELAERDWFPATSGNLSIKVTDEPLTFLVTASGKDKRKETVEDFLLVDQNGEPAESGHSLKPSAETLLHTHLYNKTNAGCCLHVHTVNNNVISELYGDQKKITFKGQEIIKALGLWEENAEVTVPIIENPAHIPTLAALFAEEISEDSGAVLIRNHGITAWGKTAFEAKRVLEAYEFLFSYHLKLKTLEHQLVK
On to B2, for which, in the data set “purified protein [4]”, the Michaelis constant (Km) came out at 24 µM, the kcat was determined as 16 s⁻¹ and the kcat/Km amounted to 670000 M⁻¹ s⁻¹. In “purified protein [5]”, the Km amounted to 315 µM, the turnover number (kcat) turned out to be 0.053 s⁻¹ and the catalytic efficiency (kcat/Km) is 200 M⁻¹ s⁻¹.

B3: RrMtnA (Rhodospirillum rubrum ATCC 11170) (protein)
chain: MNVKGTPTRTIWPAREGGAVWIIDQTRLPHEFVTQRLNDLGAVAHAIRAMLVRGAPLIGATAAYGVALGMAEDPSDEGLTRACQTLLATRPTAVNLRWAIEAMAESLAAVPPDQRAQAAWAKAGAICDEDVALNEAIGDHGLGIIKDLARTKGVEKGGEGPINILTHCNAGWLATVDWGTALAPLYKAHDAGLPIHVWVDETRPRNQGASLTAWELNSHGVPHTVIADNTGGHLMQHGLVDMVIVGTDRTTATGDVCNKIGTYLKALAAFDNAVPFYVALPGPTIDWTVNDGLREIPIEQRDAAEVTRVWGRTAAGALEWVTITPTGSPAANYAFDVTPARLITGLITERGVCAASAAGLAGLYPERAPAPVPAGSAAGKGAAATADGAL
B3: in “purified protein [6]”, the kcat was found to be 0.03 s⁻¹ and the kcat/Km is below 20 M⁻¹ s⁻¹.

B4: EcMtnA (Escherichia coli S88) (protein)
chain: MNIKGKHYRTVWVSGDGKAVEIIDQTKLPFKFEVVALTSAEMAATAIQDMWVRGAPLIGVVAAYGIALGMNHDASDMGLQRYYDLLIKTRPTAINLKWALDRMIDTLKDLCVSERKDVAWALAAEIAEEDVALCEQIGLHGAEVIREIAQKKPAGSVVNILTHCNAGWLATVDWGTALSPIYKAHENGIPVHVWVDETRPRNQGGLTAFELGSHGIPHTLIADNAGGHLMQHGDVDLCIVGTDRTTARGDVCNKIGTYLKALAAHDNHVPFYVALPSPTIDWTIEDGKSIPIEQRDGKEQSHVYGINPQGELSWVNTAPEGTRCGNYAFDVTPARYITGFITERGVCAASKSALADMFADLKSKALQGEQH
On to B4, for which, in the data set “purified protein [7]”, the Km stood at 222 µM, the kcat was 2.02 s⁻¹ and the kcat/Km was 9100 M⁻¹ s⁻¹. Moreover, in “purified protein [8]”, the Km is 50 µM, the kcat turned out to be 0.49 s⁻¹ and the kcat/Km is 9800 M⁻¹ s⁻¹.

The term Km denotes the substrate concentration at which the rate is half of its maximum. As a reminder, the kcat is the number of substrate molecules converted per active site and unit of time at saturation. The kcat/Km is the turnover number divided by the Michaelis constant.

The values are drawn from paper PMC7237333.
